Test results: US20240352434, “COMPOSITIONS COMPRISING A VARIANT CAS12I3 POLYPEPTIDE AND USES THEREOF” (Arbor Biotechnologies, Inc., published 2024)
Residue numbers refer to the chain shown, from its start.

T1: Cas12i3 S536R N711R S801R (Unidentified, S536R,N711R,S801R)
T1 chain: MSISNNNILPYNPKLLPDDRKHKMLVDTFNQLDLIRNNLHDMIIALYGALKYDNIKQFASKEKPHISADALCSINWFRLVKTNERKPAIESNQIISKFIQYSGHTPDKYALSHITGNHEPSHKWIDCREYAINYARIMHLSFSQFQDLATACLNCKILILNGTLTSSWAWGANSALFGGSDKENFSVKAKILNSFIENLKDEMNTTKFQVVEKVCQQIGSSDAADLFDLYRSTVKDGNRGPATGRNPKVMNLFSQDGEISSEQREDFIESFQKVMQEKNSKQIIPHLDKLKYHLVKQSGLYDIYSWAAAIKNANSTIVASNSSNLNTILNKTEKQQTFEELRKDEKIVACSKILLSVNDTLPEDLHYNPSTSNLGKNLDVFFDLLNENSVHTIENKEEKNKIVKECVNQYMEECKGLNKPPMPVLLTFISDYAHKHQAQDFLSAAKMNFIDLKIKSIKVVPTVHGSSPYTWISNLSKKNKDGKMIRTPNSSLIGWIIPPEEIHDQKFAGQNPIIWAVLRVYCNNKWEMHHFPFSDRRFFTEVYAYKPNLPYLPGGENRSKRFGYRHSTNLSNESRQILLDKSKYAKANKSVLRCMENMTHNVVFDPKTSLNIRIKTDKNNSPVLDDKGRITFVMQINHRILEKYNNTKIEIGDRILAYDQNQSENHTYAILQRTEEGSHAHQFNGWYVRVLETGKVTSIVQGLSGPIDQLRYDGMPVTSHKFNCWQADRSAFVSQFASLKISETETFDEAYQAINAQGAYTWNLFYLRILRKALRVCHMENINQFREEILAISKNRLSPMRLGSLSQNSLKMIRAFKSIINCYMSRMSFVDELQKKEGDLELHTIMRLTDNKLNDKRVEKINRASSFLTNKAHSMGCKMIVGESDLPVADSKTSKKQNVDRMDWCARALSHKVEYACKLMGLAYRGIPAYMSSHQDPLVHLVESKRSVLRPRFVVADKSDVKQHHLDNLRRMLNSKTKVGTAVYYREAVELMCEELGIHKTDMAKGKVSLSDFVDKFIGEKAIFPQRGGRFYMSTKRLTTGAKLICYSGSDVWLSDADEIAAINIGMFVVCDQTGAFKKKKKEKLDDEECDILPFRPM

T2: Cas12i3 K583R (Unidentified, K583R)
T2 chain: T1 chain with R536S, K583R, R711N, R801S

B1: EMX1_T5 crRNA ; EMX1_T5 target (ssRNA ; dsDNA)
RNA: AUAGUGUGUCCUUAGUUGACAUUAUUAUUCCCAUAGGGAAGG
DNA 1: TATTATTCCCATAGGGAAGG
DNA 2: CCTTCCCTATGGGAATAATA
B2: VEGFA_T2 crRNA ; VEGFA_T2 target (ssRNA ; dsDNA)
RNA: AUAGUGUGUCCUUAGUUGACAUAAUCCUCCACCAGUCAUGGU
DNA 1: AATCCTCCACCAGTCATGGT
DNA 2: ACCATGACTGGTGGAGGATT
B3: AAVS1_T3 crRNA ; AAVS1_T3 target (ssRNA ; dsDNA)
RNA: AUAGUGUGUCCUUAGUUGACAUGUGAGAAUGGUGCGUCCUAG
DNA 1: GTGAGAATGGTGCGTCCTAG
DNA 2: CTAGGACGCACCATTCTCAC

Target: T1, Cas12i3 S536R N711R S801R
Assay: cell_activity; fold change in % indels, HEK293T; PAM not stated in example
Description: (§1) Approximately 16 hours prior to transfection, 100 μl of 25,000 HEK293T cells in DMEM/10% FBS+Pen/Strep were plated into each well of a 96-well plate. On the day of transfection, the cells were 70-90% confluent. For each well to be transfected, a mixture of 0.5 μl of Lipofectamine 2000 and 9.5 μl of Opti-MEM was prepared and then incubated at room temperature for 5-20 minutes (Solution 1). […] In the case of negative controls, the crRNA was not included in Solution 2. The solution 1 and solution 2 mixtures were mixed by pipetting up and down and then incubated at room temperature for 25 minutes. Following incubation, 20 μL of the Solution 1 and Solution 2 mixture were added dropwise to each well of a 96 well plate containing the cells. 72 hours post transfection, cells are trypsinized by adding 10 μL of TrypLE to the center of each well and incubated for approximately 5 minutes. 100 μL of D10 media was then added to each well and mixed to resuspend cells. The cells were then spun down at 500 g for 10 minutes, and the supernatant was discarded. QuickExtract buffer was added to ⅕ the amount of the original cell suspension volume. Cells were incubated at 65° C. for 15 minutes, 68° C. for 15 minutes, and 98° C. for 10 minutes.
(§2) Samples for Next Generation Sequencing were prepared by two rounds of PCR. The first round (PCR1) was used to amplify specific genomic regions depending on the target. PCR1 products were purified by column purification. Round 2 PCR (PCR2) was done to add Illumina adapters and indexes. Reactions were then pooled and purified by column purification. Sequencing runs were done with a 150 cycle NextSeq v2.5 mid or high output kit.

Binder | binding signal
B1 | 1.68 fold of wild-type
B2 | 2.55 fold of wild-type
B3 | 2.1 fold of wild-type

Target: T2, Cas12i3 K583R
Assay: as above
Description: as §1, §2

Binder | binding signal
B1 | 1.3 fold of wild-type
B2 | 1.74 fold of wild-type
B3 | 1.81 fold of wild-type
